Measurements taken from patent publication US8357523B2, “Beta-glucosidase variant enzymes and related polynucleotides” (Codexis, Inc., priority 2009, dated 2013).

Columns and labels:
[1] = Enzyme stability: residual activity on pNPG after pre-incubation at high temperature and low pH; type: biochemical; settings: residual activity on pNPG at pH 7, 30° C.
Method: Residual activity is determined by exposing the enzyme to stress conditions of elevated temperature for a period of time and then determining the β-glucosidase activity. The β-glucosidase activity of the enzyme exposed to stress conditions (“a”) is compared to that of a control in which the enzyme is not exposed to the stress conditions (“b”), and residual activity is equal to the ratio a/b. Exemplary conditions for determining thermostability are provided in Examples 9 and 13. In one embodiment the enzymes are exposed to stress conditions of 50° C. at pH 5.5 or 55° C. at pH 5.0 or 55° C. at pH 5.5, or 65° C. at pH 5.0 for about 1 hour, and assayed at 30° C., pH 7, for about 0.1 hour.
A colorimetric pNPG (p-nitrophenyl-(β-D-glucopyranoside)-based assay was used for measuring β-glucosidase activity. In a total volume of 100 μL, 20 μL clear media supernatant containing β-glucosidase enzyme was added to 4 mM pNPG (Sigma-Aldrich, Inc. St. Louis, Mo.) solution in 50 mM sodium phosphate buffer at pH6.5. The reactions were incubated at pH 6.5, 45° C. for 1 hour. The reaction mixture was quenched with 100 μL of 1M sodium carbonate pH 11 solution. The absorbance of the solution was measured at 405 nm to determine the conversion of pNPG to p-nitrophenol. The release of p-nitrophenol (ε=17,700 M−1 cm−1) was measured at 405 nm to calculate β-glucosidase activity. Detectable β-glucosidase activity was observed under high throughput screening conditions (pH 7, 50° C.).
Four CelA variants and wildtype CelA were characterized to determine their stabilities at high temperature (55° C.) and low pH (pH5.5) using the method of Example 5A. The samples containing various CelA variant enzymes were pre-incubated at pH 5.5, 55° C. for 0-6 hrs. The residual enzyme activity after the thermal challenge was measured using pNPG as substrate at pH 7, 30° C. for 1 hr. […] The mutations listed in the table are indicated relative to SEQ ID NO: 4, the wildtype CelA. These sequences included residues GTS prior to the N-terminus of SEQ ID NO: 4 (prepared as described in Example 1). […]

[2] = Saccharification of microcrystalline cellulose by Trichoderma reesei whole cellulase supplemented with β-glucosidase; type: biochemical; settings: 1 g/L TRWC alone or 25% of TRWC substituted with the β-glucosidase; 200 g/L Avicel, 100 g/L xylose, pH5.5, 55° C., 48 hours
From the text: FIG. 12 illustrates the impact of supplementing a commercially available Trichoderma reesei whole cellulose (“TRWC”) mixture with a CelA variant of the present invention. Compositions containing TRWC were supplemented with β-glucosdiases CelA Variant No. 264 (“Cel var1”), CelA Variant No. 366 (“Cel var2”), and a commercially available Aspergillus niger β-glucosidase (“ANBG”) in a ratio of 3:1 TRWC to β-glucosidase. The effectiveness of each composition at hydrolyzing microcrystalline cellulose was evaluated as described in Example 15. A plot of glucose and cellobiose concentration (g/L) vs. cellulase composition is depicted. The control composition was TRWC with no added β-glucosidase.
The impact of adding a CelA variant of the present invention to commercially available cellulose mixtures and microcrystalline cellulose, Avicel™, was evaluated. In the test reactions, 1 g/L Trichoderma reesei whole cellulose (“TRWC”, Sigma catalog #C85456-10KU (ATCC 26921)) was used to convert 200 g/L of the microcrystalline cellulose Avicel™ (200 mM Sodium acetate; 100 g/L xylose, pH5.5 and 55° C.). The amount of glucose was measured after 48 hours of reaction. As a comparison, 25% of the TRWC was replaced with a β-glucosidase: Variant No. 264 (“Cel var1”), Variant No. 366 (“Cel var2”), or with the commercially available cellobiase, Aspergillus niger beta-glucosidase (“ANBG”, Sigma catalog #49291-1G). […]

B1: Variant No. 264 (protein)
chain: SAAIAQEGAAPAAMLHPEKWPRPATQRLIDPAVEKRVDALLKQLSVEEKVGQVIQGDIGTITPEDLRKYPLGSILAGGDSGPNGDDRAPPKEWLDLADAFYRVSLEKRPGHTPIPVLFGIDAVHGHGNIGSATIFPHNIALGMTRDPELLRRIGEVTAEEMAATGIDWTFAPALSVVRDDRWGRTYEGFSEDPEIVASYSAAIVEGVQGKYGSKDFMAPGRAVACAKHFLADGGTDQGRDQGDARISEDELIRIHNAGYPPAIDAGVLTVMASFSSWQGIKHHGHKQLLTDVLKGQMGFNGFIVGDWNAHDQVPGCTKFNCPTSLIAGLDMYMAADSWKQLYENTLAQVKDGTIPMARLDDAVRRILRVKVLAGLFEKPAPKDRPGLPGLETLGSPEHRAVGREAVRKSLVLLKNDKGTLPLSPKARVLVAGDGADNIGKQSGGWTISWQGTGNRNDEFPGATSILGGIRDAVADAGGSVEFDVAGQYKTKPDVAIVVFGEEPYAEFRGDVETLEYQPDQKQDLTLLKKLKDQGIPVVAVFLSGRPMWVNPELNASDAFVAAWLPGTEGGGVADVLFTDKAGKVQHDFAGKLSYSWPRTAAQTTVNRGDADYNPLFAYGYGLTYKDKSKVGTLPEESGVPAEARQN
- % residual activity after 10 mins @ pH 5.5, 55° C. ([1]; pre-incubation 10 mins at pH 5.5, 55° C., 1 hr): 95%
- % residual activity after 1 hour @ pH 5.5, 55° C. ([1]; pre-incubation 1 hour at pH 5.5, 55° C.): 78%
- % residual activity after 6 hours @ pH 5.5, 55° C. ([1]; pre-incubation 6 hours at pH 5.5, 55° C., 1 hr): 11%
- cellobiose and glucose combined yielded in saccharification reaction [2]: comparable results
